Target: SARS-CoV-1 spike (S) receptor binding domain (SARS-CoV-1)
Assay: SPR

With parental VHH-72-Fc (Fc fusion) the koff was 0.00021 s⁻¹.

From publication PMC8967028
